# Measured values published in article PMC7338394.
# B1: truncated Myc-tagged DIX domain of DVL2 [human] / Dishevelled-2 (DVL2), full-length, Flag-tagged [human] (parent)
# chain 1: VGETKVIYHLDEEETPYLVKIPVPAERITLGDFKSVLQRPAGAKYFFKSMDQDFGVVKEEISDDNARLPCFNGRVVSWLVSSD
# chain 2: MAGSSTGGGGVGETKVIYHLDEEETPYLVKIPVPAERITLGDFKSVLQRPAGAKYFFKSMDQDFGVVKEEISDDNARLPCFNGRVVSWLVSSDNPQPEMAPPVHEPRAELAPPAPPLPPLPPERTSGIGDSRPPSFHPNVSSSHENLEPETETESVVSLRRERPRRRDSSEHGAGGHRTGGPSRLERHLAGYESSSTLMTSELESTSLGDSDEEDTMSRFSSSTEQSSASRLLKRHRRRRKQRPPRLERTSSFSSVTDSTMSLNIITVTLNMEKYNFLGISIVGQSNERGDGGIYIGSIMKGGAVAADGRIEPGDMLLQVNDMNFENMSNDDAVRVLRDIVHKPGPIVLTVAKCWDPSPQAYFTLPRNEPIQPIDPAAWVSHSAALTGTFPAYPGSSSMSTITSGSSLPDGCEGRGLSVHTDMASVTKAMAAPESGLEVRDRMWLKITIPNAFLGSDVVDWLYHHVEGFPERREARKYASGLLKAGLIRHTVNKITFSEQCYYVFGDLSGGCESYLVNLSLNDNDGSSGASDQDTLAPLPGATPWPLLPTFSYQYPAPHPYSPQPPPYHELSSYTYGGGSASSQHSEGSRSSGSTRSDGGAGRTGRPEERAPESKSGSGSESEPSSRGGSLRRGGEASGTSDGGPPPSRGSTGGAPNLRAHPGLHPYGPPPGMALPYNPMMVVMMPPPPPPVPPAVQPPGAPPVRDLGSVPPELTASRQSFHMAMGNPSEFFVDVM
# Variants of: B1
# Test: Co-IP (IP: Flag, immunoblot for Myc-DIX) with densitometry
# Conditions: with Dishevelled-2 (DVL2), HEK293T cells, co-immunoprecipitated DIX levels normalized to immunoprecipitated DVL2 levels, three independent experiments, parent: 4.7, read off a plot
row,Variant,response
1,chain 1 VGETKVIYHLDEEETPYLVKIPVPAERITLGDFKSVLQRPAGAKYFFKSMDQDFGVVREEISDDNARLPCFNGRVVSWLVSSD [chain 1 K58R],1.1
